B1: HRG4: HRG-β1 147-227 displayed on phage, fused to pIII 247 (ligand, phage M13)
chain: YVSSESPIRISVSTEGANTSSSTSTSTTGTSHLVKCAEKEKTFCVNGGECFMVKDLSNPSRYLCKCPNEFTGDRCQNYVMAGGSGGGSGSGDFDYEKMANANKGAMTENADENALQSDAKGKLDSVATDYGAAIDGFIGDVSGLANGNGATGDFAGSNSQMAQVGDGDNSPLMNNFRQYLPSLPQSVECRPFVFSAGKPYEFSIDCDKINLFRGVFAFLLYVATFMYVFSTFANILRNKES
notes: range 247-C-terminus; Monovalent phage display; also called pHRG4-g3
B2: recombinantly produced HRG-β1 177-244 (soluble) (ligand)
chain: SHLVKCAEKEKTFCVNGGECFMVKDLSNPSRYLCKCPNEFTGDRCQNYVMASFYKHLGIEFMEAEELY
B3: HRG-β1 177-244 L179A on phage (ligand)
chain: SHAVKCAEKEKTFCVNGGECFMVKDLSNPSRYLCKCPNEFTGDRCQNYVMASFYKHLGIEFMEAEELY
notes: not shown: M13 pIII C-terminal fragment (from pIII residue 247), the phage display partner
B4: HRG-β1 177-244 R207A on phage (ligand)
chain: SHLVKCAEKEKTFCVNGGECFMVKDLSNPSAYLCKCPNEFTGDRCQNYVMASFYKHLGIEFMEAEELY
notes: not shown: M13 pIII fragment from residue 247 to the C-terminus (phage display carrier) and any cloning-site junction
B5: HRG-β1 177-244 H178A on phage (ligand)
chain: SALVKCAEKEKTFCVNGGECFMVKDLSNPSRYLCKCPNEFTGDRCQNYVMASFYKHLGIEFMEAEELY
notes: as for B3
B6: HRG-β1 177-244 P205A on phage (ligand)
chain: SHLVKCAEKEKTFCVNGGECFMVKDLSNASRYLCKCPNEFTGDRCQNYVMASFYKHLGIEFMEAEELY
notes: as for B4
B7: HRG-β1 177-244 K200A on phage (ligand)
chain: SHLVKCAEKEKTFCVNGGECFMVADLSNPSRYLCKCPNEFTGDRCQNYVMASFYKHLGIEFMEAEELY
notes: also called K2OO; not shown: M13 pIII fragment from residue 247 to the C-terminus (phage display carrier) and any cloning-site junction
B8: HRG-β1 177-244 K211A on phage (ligand)
chain: SHLVKCAEKEKTFCVNGGECFMVKDLSNPSRYLCACPNEFTGDRCQNYVMASFYKHLGIEFMEAEELY
notes: as for B4
B9: HRG-β1 177-244 E195A on phage (ligand)
chain: SHLVKCAEKEKTFCVNGGACFMVKDLSNPSRYLCKCPNEFTGDRCQNYVMASFYKHLGIEFMEAEELY
notes: as for B3
B10: HRG-β1 177-244 N192A on phage (ligand)
chain: SHLVKCAEKEKTFCVAGGECFMVKDLSNPSRYLCKCPNEFTGDRCQNYVMASFYKHLGIEFMEAEELY
notes: as for B3
B11: HRG-β1 177-244 G193A on phage (ligand)
chain: SHLVKCAEKEKTFCVNAGECFMVKDLSNPSRYLCKCPNEFTGDRCQNYVMASFYKHLGIEFMEAEELY
notes: as for B3
B12: HRG-β1 177-244 S177A on phage (ligand)
chain: AHLVKCAEKEKTFCVNGGECFMVKDLSNPSRYLCKCPNEFTGDRCQNYVMASFYKHLGIEFMEAEELY
notes: as for B3
B13: HRG-β1 177-244 E215A on phage (ligand)
chain: SHLVKCAEKEKTFCVNGGECFMVKDLSNPSRYLCKCPNAFTGDRCQNYVMASFYKHLGIEFMEAEELY
notes: as for B4
B14: HRG-β1 177-244 F229A on phage (ligand)
chain: SHLVKCAEKEKTFCVNGGECFMVKDLSNPSRYLCKCPNEFTGDRCQNYVMASAYKHLGIEFMEAEELY
notes: as for B3
B15: HRG-β1 177-244 G194A on phage (ligand)
chain: SHLVKCAEKEKTFCVNGAECFMVKDLSNPSRYLCKCPNEFTGDRCQNYVMASFYKHLGIEFMEAEELY
notes: as for B3
B16: HRG-β1 177-244 V199A on phage (ligand)
chain: SHLVKCAEKEKTFCVNGGECFMAKDLSNPSRYLCKCPNEFTGDRCQNYVMASFYKHLGIEFMEAEELY
notes: as for B4
B17: HRG-β1 177-244 Y224A on phage (ligand)
chain: SHLVKCAEKEKTFCVNGGECFMVKDLSNPSRYLCKCPNEFTGDRCQNAVMASFYKHLGIEFMEAEELY
notes: as for B3
B18: HRG-β1 177-244 T217A on phage (ligand)
chain: SHLVKCAEKEKTFCVNGGECFMVKDLSNPSRYLCKCPNEFAGDRCQNYVMASFYKHLGIEFMEAEELY
notes: as for B4
B19: HRG5: HRG-β1 147-244 displayed on phage, fused to pIII 247 (ligand, phage M13)
chain: YVSSESPIRISVSTEGANTSSSTSTSTTGTSHLVKCAEKEKTFCVNGGECFMVKDLSNPSRYLCKCPNEFTGDRCQNYVMASFYKHLGIEFMEAEELYGGSGGGSGSGDFDYEKMANANKGAMTENADENALQSDAKGKLDSVATDYGAAIDGFIGDVSGLANGNGATGDFAGSNSQMAQVGDGDNSPLMNNFRQYLPSLPQSVECRPFVFSAGKPYEFSIDCDKINLFRGVFAFLLYVATFMYVFSTFANILRNKES
notes: range 247-C-terminus; Monovalent phage display; also called pHRG5-g3
B20: TH-WT: thioredoxin fused at its C-terminus to wild-type HRG-β1 146-244 (ligand)
chain: DDDDKAYVSSESPIRISVSTEGANTSSSTSTSTTGTSHLVKCAEKEKTFCVNGGECFMVKDLSNPSRYLCKCPNEFTGDRCQNYVMASFYKHLGIEFMEAEELY
notes: also called Trx-wild-type HRG-β1; not shown: thioredoxin (Trx) from pTrxFus

Tests used:
[1] = target: T1, ErbB-3 receptor-Ig fusion (human, UniProt P21860 20-643); test: displacement of 125I-HRG-β1 177-244 from plate-bound ErbB-3-Ig
T1 construct: extracellular domain;range 224-C-terminus; also called ErbB-3-Ig; 3/3 homodimer; not shown: human IgG heavy chain constant region from His224 (hinge) on

[2] = target: T2, ErbB-4 receptor-Ig fusion (human, UniProt Q15303 26-651); test: displacement of 125I-HRG-β1 177-244 from plate-bound ErbB-4-Ig
T2 construct: extracellular domain;range 224-C-terminus; also called ErbB-4-Ig; not shown: human IgG heavy chain constant region from His224 (hinge) on
T2 sequence: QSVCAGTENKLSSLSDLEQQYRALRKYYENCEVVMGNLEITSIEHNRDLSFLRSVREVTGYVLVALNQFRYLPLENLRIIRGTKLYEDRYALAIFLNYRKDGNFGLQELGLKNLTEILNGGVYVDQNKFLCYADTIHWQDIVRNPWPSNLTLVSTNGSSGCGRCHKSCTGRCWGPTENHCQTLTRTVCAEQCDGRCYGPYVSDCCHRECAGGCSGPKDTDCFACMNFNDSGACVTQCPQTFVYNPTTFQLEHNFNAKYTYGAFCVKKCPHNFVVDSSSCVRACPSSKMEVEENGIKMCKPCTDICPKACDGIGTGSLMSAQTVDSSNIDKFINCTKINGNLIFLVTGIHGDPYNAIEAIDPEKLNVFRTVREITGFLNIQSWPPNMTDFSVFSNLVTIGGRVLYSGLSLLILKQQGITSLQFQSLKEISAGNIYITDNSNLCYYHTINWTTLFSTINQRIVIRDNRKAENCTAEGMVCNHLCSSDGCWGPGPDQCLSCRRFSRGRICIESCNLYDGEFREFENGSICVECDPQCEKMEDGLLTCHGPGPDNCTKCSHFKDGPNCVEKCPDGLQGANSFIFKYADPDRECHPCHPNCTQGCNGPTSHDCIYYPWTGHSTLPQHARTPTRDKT

[3] = target: T3, ErbB-2/3 receptor-Ig fusion (human, UniProt P04626 23-652; P21860 20-643); test: phage ELISA; soluble ErbB-2/3-Ig competes phage off plate-bound ErbB-2/3-Ig
T3 construct: extracellular domain;range 224-C-terminus; Co-expressed in HEK-293; also called ErbB-2/3-Ig; 2/3-heterodimer; not shown: human IgG heavy chain constant region from His224 (hinge) on

[4] = target: T1, ErbB-3 receptor-Ig fusion; test: phage ELISA; soluble ErbB-3-Ig as competitor
Protocol: (§1) Microtiter plates (Nunc Maxisorp™ 96-well plates, Inter Med, Denmark) for phage ELISA were prepared as follows. The wells were precoated overnight with 0.5 μg of rabbit anti-human IgG (Fc gamma fragment-specific) antibodies (Jackson Immunoresearch, West Grove, Pa.) in 100 μL 50 mM NaCO₃ (pH 9.6). The wells were blocked for 30 minutes (min) with 200 μL PBS containing 0.1% bovine serum albumin (BSA) and rinsed with wash buffer (PBS containing 0.05% Tween 20™). The wells were then coated with 0.1 μg ErbB-2/3-Ig in binding buffer (PBS, 0.1% BSA, 0.05% Tween 20™) for 1 h, and washed again.
(§2) Serial dilutions of soluble ErbB-2/3-Ig (competitor) and a concentration of phage predetermined to give 60% saturation (without competitor) were added to the wells in 100 μL binding buffer. Following incubation for 2 h at room temperature, plates were washed extensively and treated with a 1:900 dilution of anti-M13 horseradish peroxidase conjugate (Pharmacia, Piscataway, N.J.) for 20 min. The amount of phage binding was determined by assaying horseradish peroxidase activity using o-phenylenediamine dihydrochloride) substrate solution (Sigma Chemical Company, St. Louis, Mo.). EC₅₀ values were calculated as the concentration of soluble ErbB-2/3-Ig required to compete half of the phage off the plate.

[5] = target: T2, ErbB-4 receptor-Ig fusion; test: phage ELISA; soluble ErbB-4-Ig as competitor
Protocol: as §1, §2

T1 sequence (P21860 other isoform, or with tags, fused parts or gaps): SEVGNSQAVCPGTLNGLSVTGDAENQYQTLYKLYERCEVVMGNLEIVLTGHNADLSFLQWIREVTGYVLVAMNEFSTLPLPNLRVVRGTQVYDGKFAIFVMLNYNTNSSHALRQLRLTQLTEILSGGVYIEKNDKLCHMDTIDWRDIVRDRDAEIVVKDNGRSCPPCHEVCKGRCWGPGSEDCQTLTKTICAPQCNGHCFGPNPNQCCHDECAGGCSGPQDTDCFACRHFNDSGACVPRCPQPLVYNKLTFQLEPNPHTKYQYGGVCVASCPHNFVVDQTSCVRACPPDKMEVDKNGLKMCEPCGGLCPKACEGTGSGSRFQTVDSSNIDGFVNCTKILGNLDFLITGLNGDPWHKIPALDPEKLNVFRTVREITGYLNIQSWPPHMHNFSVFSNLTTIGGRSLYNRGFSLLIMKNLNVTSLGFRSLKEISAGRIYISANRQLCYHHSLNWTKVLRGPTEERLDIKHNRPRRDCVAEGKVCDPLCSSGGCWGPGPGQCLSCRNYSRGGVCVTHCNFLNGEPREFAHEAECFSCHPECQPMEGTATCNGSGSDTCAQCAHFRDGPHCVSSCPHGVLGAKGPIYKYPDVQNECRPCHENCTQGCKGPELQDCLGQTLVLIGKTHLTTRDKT

Molecule	EC50 [1] [nM]	EC50 [2] [nM]	EC50 [5] [nM]	other results
Trx-HRG-β1 146-244 R207A fusion (soluble) (from UniProt Q6DR98 147-244) (ligand)	245	24.3	–	–
Trx-HRG-β1 146-244 N192A fusion (soluble) (from UniProt Q6DR98 147-244) (ligand)	1640	696	–	–
Trx-HRG-β1 146-244 G193A fusion (soluble) (from UniProt Q6DR98 147-244) (ligand)	26.9	76.3	–	–
Trx-HRG-β1 146-244 F189A fusion (soluble) (from UniProt Q6DR98 147-244) (ligand)	975	565	–	–
Trx-HRG-β1 146-244 P205A fusion (soluble) (from UniProt Q6DR98 147-244) (ligand)	39.5	34.2	–	–
Trx-HRG-β1 146-244 S177A fusion (soluble) (from UniProt Q6DR98 147-244) (ligand)	129	54.6	–	–
Trx-HRG-β1 146-244 L179A fusion (soluble) (from UniProt Q6DR98 147-244) (ligand)	394	51.7	–	–
Trx-HRG-β1 146-244 G218A fusion (soluble) (from UniProt Q6DR98 147-244) (ligand)	668	608	–	–
Trx-HRG-β1 146-244 G194A fusion (soluble) (from UniProt Q6DR98 147-244) (ligand)	1210	275	–	–
Trx-HRG-β1 146-244 Y224A fusion (soluble) (from UniProt Q6DR98 147-244) (ligand)	339	24.5	–	–
Trx-HRG-β1 146-244 E195A fusion (soluble) (from UniProt Q6DR98 147-244) (ligand)	42	13.2	–	–
Trx-HRG-β1 146-244 K211A fusion (soluble) (from UniProt Q6DR98 147-244) (ligand)	248	124	–	–
Trx-HRG-β1 146-244 E215A fusion (soluble) (from UniProt Q6DR98 147-244) (ligand)	156	104	–	–
Trx-HRG-β1 146-244 T217A fusion (soluble) (from UniProt Q6DR98 147-244) (ligand)	145	32.7	–	–
Trx-HRG-β1 146-244 F229A fusion (soluble) (from UniProt Q6DR98 147-244) (ligand)	177	89.9	–	–
Trx-HRG-β1 146-244 V199A fusion (soluble) (from UniProt Q6DR98 147-244) (ligand)	–	246	–	–
Trx-HRG-β1 146-244 H178A fusion (soluble) (from UniProt Q6DR98 147-244) (ligand)	476	138	–	–
Trx-HRG-β1 146-244 F216A fusion (soluble) (from UniProt Q6DR98 147-244) (ligand)	2550	173	–	–
Trx-HRG-β1 146-244 K200A fusion (soluble) (from UniProt Q6DR98 147-244) (ligand)	45.4	16.9	–	–
B1	–	–	–	EC50 [3]: 38 nM

Molecule	EC50 [1] [nM]	EC50 [2] [nM]	EC50 [5] [nM]	other results
B2	9	14.8	–	–
B3	–	–	56	EC50 [4]: ~1000 nM
B4	–	–	30	–
B5	–	–	32	–
B6	–	–	8	EC50 [4]: 22 nM
B7	–	–	25	EC50 [4]: 20 nM
B8	–	–	59	–
B9	–	–	24	–
B10	–	–	188	–
B11	–	–	23	–
B12	–	–	83	EC50 [4]: 67 nM
B13	–	–	32	EC50 [4]: 51 nM
B14	–	–	–	EC50 [4]: 6 nM
B15	–	–	65	EC50 [4]: 500 nM
B16	–	–	47	EC50 [4]: 27 nM
B17	–	–	51	EC50 [4]: 865 nM
B18	–	–	14.2	–
B19	–	–	–	EC50 [3]: 4.7 nM
B20	47.6	15.4	–	–
